What was measured:
Assay in all cases: fluorescence polarisation; saturation binding format; 10 nM FITC-labeled peptide probe, purified receptor ECD at rising concentrations; 1 h at room temperature; anisotropy; mean pKD of at least three independent experiments
Conditions in all cases: both partners purified
[1] = target: T1, FITC-labeled AC413(6–25) with Y25P mutation (fluorescein isothiocyanate (FITC) on the N-terminus)
T1 construct: AC413, an antagonist amylin analog, residues 6-25 (20 amino acids) with Y25P; also called FITC-AC413(6–25) Y25P; AC413(6–25) Y25P; source: synthetic peptide (custom-synthesized, Genscript, HPLC-purified)

[2] = target: T2, FITC-labeled salmon calcitonin (sCT) fragment(22–32) (salmon, fluorescein isothiocyanate (FITC) label, position not stated)
T2 construct: salmon calcitonin, residues 22-32 (11 amino acids); numbers count on: the mature 32-residue hormone; probably FITC at the N-terminus and a C-terminal amide, neither stated for this peptide; also called FITC-sCT(22–32); sCT(22–32); source: synthetic peptide (custom-synthesized, Genscript, HPLC-purified)

[3] = target: T2, FITC-labeled salmon calcitonin (sCT) …; remark: listed apart in the source

| Binder | Kd [1] [nM] | pKD [1] | Kd [2] [nM] | pKD [2] | fold decrease of affinity against the wild type [3] [fold] |
| --- | --- | --- | --- | --- | --- |
| amylin receptor 1 extracellular domain, wild type (hRAMP1.24–111-(GSA)3-hCTR.34–141-H6) (receptor, N-glycosylated (sites not given)) TTACQEANYGALLRELCLTQFQVDMEAVGETLWCDWGRTIRSYRELADCTWHMAEKLGCFWPNAEVDRFFLAVHGRYFRSCPISGRAVGSAGSAGSAIEPKPFLYVVGRKKMMDAQYKCYDRMQQLPAYQGEGPYCNRTWDGWLCWDDTPAGVLSYQFCPDYFPDFDPSEKVTKYCDEKGVWFKHPENNRTWSNYTMCNAFTPEK | 57 | 7.24 | 81 | 7.09 |  |
| amylin receptor 1 extracellular domain with calcitonin receptor E123A (hRAMP1.24–111-(GSA)3-hCTR.34–141.E123A-H6) (receptor, N-glycosylated (sites not given)) TTACQEANYGALLRELCLTQFQVDMEAVGETLWCDWGRTIRSYRELADCTWHMAEKLGCFWPNAEVDRFFLAVHGRYFRSCPISGRAVGSAGSAGSAIEPKPFLYVVGRKKMMDAQYKCYDRMQQLPAYQGEGPYCNRTWDGWLCWDDTPAGVLSYQFCPDYFPDFDPSEKVTKYCDEKGVWFKHPANNRTWSNYTMCNAFTPEK | 129 | 6.89 | 365 | 6.44 |  |
| amylin receptor 1 extracellular domain with calcitonin receptor N124A (hRAMP1.24–111-(GSA)3-hCTR.34–141.N124A-H6) (receptor, N-glycosylated (sites not given)) TTACQEANYGALLRELCLTQFQVDMEAVGETLWCDWGRTIRSYRELADCTWHMAEKLGCFWPNAEVDRFFLAVHGRYFRSCPISGRAVGSAGSAGSAIEPKPFLYVVGRKKMMDAQYKCYDRMQQLPAYQGEGPYCNRTWDGWLCWDDTPAGVLSYQFCPDYFPDFDPSEKVTKYCDEKGVWFKHPEANRTWSNYTMCNAFTPEK | 467 | 6.33 |  |  | > 10 |
| amylin receptor 1 extracellular domain with calcitonin receptor E123D (hRAMP1.24–111-(GSA)3-hCTR.34–141.E123D-H6) (receptor, N-glycosylated (sites not given)) TTACQEANYGALLRELCLTQFQVDMEAVGETLWCDWGRTIRSYRELADCTWHMAEKLGCFWPNAEVDRFFLAVHGRYFRSCPISGRAVGSAGSAGSAIEPKPFLYVVGRKKMMDAQYKCYDRMQQLPAYQGEGPYCNRTWDGWLCWDDTPAGVLSYQFCPDYFPDFDPSEKVTKYCDEKGVWFKHPDNNRTWSNYTMCNAFTPEK | 136 | 6.87 | 53 | 7.28 |  |
| amylin receptor 1 extracellular domain with calcitonin receptor N124D (hRAMP1.24–111-(GSA)3-hCTR.34–141.N124D-H6) (receptor, N-glycosylated (sites not given)) TTACQEANYGALLRELCLTQFQVDMEAVGETLWCDWGRTIRSYRELADCTWHMAEKLGCFWPNAEVDRFFLAVHGRYFRSCPISGRAVGSAGSAGSAIEPKPFLYVVGRKKMMDAQYKCYDRMQQLPAYQGEGPYCNRTWDGWLCWDDTPAGVLSYQFCPDYFPDFDPSEKVTKYCDEKGVWFKHPEDNRTWSNYTMCNAFTPEK | 822 | 6.09 | 52 | 7.29 |  |
| amylin receptor 1 extracellular domain with calcitonin receptor D97E (hRAMP1.24–111-(GSA)3-hCTR.34–141.D97E-H6) (receptor, N-glycosylated (sites not given)) TTACQEANYGALLRELCLTQFQVDMEAVGETLWCDWGRTIRSYRELADCTWHMAEKLGCFWPNAEVDRFFLAVHGRYFRSCPISGRAVGSAGSAGSAIEPKPFLYVVGRKKMMDAQYKCYDRMQQLPAYQGEGPYCNRTWDGWLCWDDTPAGVLSYQFCPEYFPDFDPSEKVTKYCDEKGVWFKHPENNRTWSNYTMCNAFTPEK | 81 | 7.09 | 161 | 6.79 |  |
| amylin receptor 1 extracellular domain with calcitonin receptor D97A (hRAMP1.24–111-(GSA)3-hCTR.34–141.D97A-H6) (receptor, N-glycosylated (sites not given)) TTACQEANYGALLRELCLTQFQVDMEAVGETLWCDWGRTIRSYRELADCTWHMAEKLGCFWPNAEVDRFFLAVHGRYFRSCPISGRAVGSAGSAGSAIEPKPFLYVVGRKKMMDAQYKCYDRMQQLPAYQGEGPYCNRTWDGWLCWDDTPAGVLSYQFCPAYFPDFDPSEKVTKYCDEKGVWFKHPENNRTWSNYTMCNAFTPEK | 62 | 7.21 | 548 | 6.26 |  |

— PMC12292835, “Amylin Receptor 1 Mutagenesis Revealed a Potential Role of Calcitonin Serine 29 in Receptor Interaction” (Biomedicines, 2025)
